# Values quoted from earlier work, collected in PMC4155411.
# Biological target: HPr (Escherichia coli) (UniProt P0AA04)
# Experiment: PRE NMR titration
substance,measurement,value
Enzyme I N-terminal domain (EIN) N-terminal domain (from UniProt P08839),Kd,7 µM
